Source: PMC10003557 (International Journal of Molecular Sciences, 2023)
Numbering of substitutions follows the chain as printed.

B1: P5E1-A6 (hIgG1) (antibody, V domains shown)
VH: EVQLLESGGGLVQPGGSLRLSCAASGFTFTSTAMSWVRQAPGKGLEWVSGIYGRGSTRYADSVKGRFTISRDNSKNTLYLQMNSLRAEDTAVYYCARGGSWFDPWGQGTLVTVSS
VL: not shown
B2: P5E1 (hIgG1) (antibody, V domains shown)
VH: EVQLLESGGGLVQPGGSLRLSCAASGFTFSDSAMSWVRQAPGKGLEWVSGIYGRGGYTYYADSVKGRFTISRDNSKNTLYLQMNSLRAEDTAVYYCARGGSWFDPWGQGTLVTVSS
VL: not shown
B3: P5A10-G2 (hIgG1) (antibody, V domains shown)
VH: EVQLLESGGGLVQPGGSLRLSCAASGFTSSNTWMSWVRQAPGKGLEWVSGIDGRGGSTYYADSVKGRFTISRDNSKNTLYLQMNSLRAEDTAVYYCATDSSTQPWYFDLWGRGTLVTVSS
VL: EIVLTQSPATLSLSPGERATLSCRASQSVSSNLAWYQQKPGQAPRLLIYDASNRATGIPARFSGSGSGTDFTLTISSLEPEDFAVYYCQQREREPITFGQGTKVEIK
B4: P5A10 (hIgG1) (antibody, V domains shown)
VH: B3 VH with S29F, N31S, T32S, W33A, D52Y
VL: B3 VL
B5: P5A10-G4 (hIgG1) (antibody, V domains shown)
VH: EVQLLESGGGLVQPGGSLRLSCAASGFTFSSYWMSWVRQAPGKGLEWVSGISGSGRRAFGGSTYYADSVKGRFTISRDNSKNTLYLQMNSLRAEDTAVYYCATDSSTQPWYFDLWGRGTLVTVSS
VL: B3 VL

Key:
[1] = molecular target: T1, SARS-CoV-2 receptor-binding domain (RBD) wild-type (WT) (SARS-CoV-2 (Wuhan, WT), UniProt P0DTC2); test: SPR; Biacore; antibodies captured on the chip (Protein A CM5 chip by the methods, anti-IgG antibody by the results), RBD WT flown over; 1:1 Langmuir fit; conditions: both partners purified
T1 construct: also called RBD WT; RBD Wuhan (WT)

[2] = molecular target: T1, SARS-CoV-2 receptor-binding domain …; test: bead-based flow cytometry (iQue3) blocking assay; conditions: both partners purified
[3] = molecular target: T1, SARS-CoV-2 receptor-binding domain …; test: cell-based or functional assay
[4] = molecular target: T2, biotinylated RBD protein (SPD-C82E9, Acro Biosystems) (SARS-CoV-2 (WT), UniProt P0DTC2); test: bead-based flow cytometry (iQue3, Qbeads) competition assay; conditions: both partners purified
T2 construct: also called Biotinylated RBD WT; RBD-Qbeads

[5] = molecular target: T1, SARS-CoV-2 receptor-binding domain …; test: bead-based flow cytometry (iQue3) blocking assay; conditions: both partners purified; remark: listed apart in the source
[6] = molecular target: T1, SARS-CoV-2 receptor-binding domain …; test: SPR; Biacore; antibodies captured on the chip (Protein A CM5 chip by the methods, anti-IgG antibody by the results), RBD WT flown over; 1:1 Langmuir fit; conditions: both partners purified; remark: listed apart in the source
[7] = molecular target: T1, SARS-CoV-2 receptor-binding domain …; test: ELISA; binding ELISA of purified hIgG1 on RBD; EC50; conditions: both partners purified
[8] = molecular target: T2, biotinylated RBD protein (SPD-C82E9, …); test: bead-based flow cytometry (iQue3, Qbeads) competition assay; conditions: both partners purified; remark: listed apart in the source

Binder	Kd [1] [nM]	koff [1] [s⁻¹]	kon [1] [M⁻¹ s⁻¹]	IC50 [2] [nM]	PRNT: authentic SARS-CoV-2 on Vero E6 cells, NC50; pair blocked: RBD with hACE-2 [3] [nM]	IC50 [4] [nM]	IC50 [5] [nM]	Kd [6] [nM]	koff [6] [s⁻¹]	kon [6] [M⁻¹ s⁻¹]	EC50 [7] [nM]	IC50 [8] [nM]
B1	0.89	0.000527	588000	0.61	43.9	0.06	–	–	–	–	–	–
B2	–	–	–	–	–	–	2.63	27.1	0.00433	160000	0.97	2.15
B3	0.39	0.000578	1.49e+06	1.18	61.1	1.23	–	–	–	–	–	–
B4	–	–	–	–	–	–	–	28.8	0.00367	127000	16.9	2.34
B5	0.14	0.000148	1.09e+06	0.78	10.4	0.12	–	–	–	–	–	–
